Data published in article PMC7494997.
Numbering of substitutions follows the chain as printed. Names and notes keep the numbering of the source.

B1: yeast-displayed mVISTA E124A (protein)
chain: FKVTTPYSLYVCPEGQNATLTCRILGPVSKGHDVTIYKTWYLSSRGEVQMCKEHRPIRNFTLQHLQHHGSHLKANASHDQPQKHGLELASDHHGNFSITLRNVTPRDSGLYCCLVIELKNHHPAQRFYGSMELQVQAGKGSGSTCMASNEQDSDSITAA
B2: yeast-displayed mVISTA H121A (protein)
chain: B1 chain with H121A, A124E
B3: yeast-displayed mVISTA K38A (protein)
chain: B1 chain with K38A, A124E
B4: yeast-displayed mVISTA I36A (protein)
chain: B1 chain with I36A, A124E

These binders were tested against SG7 (assay: flow cytometry on yeast-displayed VISTA). Conditions: chain shown with the change; 4 nM SG7; parent: est. 100; read off a plot.
Sequence of SG7 (chain, as listed by the source, chain 1 of 2): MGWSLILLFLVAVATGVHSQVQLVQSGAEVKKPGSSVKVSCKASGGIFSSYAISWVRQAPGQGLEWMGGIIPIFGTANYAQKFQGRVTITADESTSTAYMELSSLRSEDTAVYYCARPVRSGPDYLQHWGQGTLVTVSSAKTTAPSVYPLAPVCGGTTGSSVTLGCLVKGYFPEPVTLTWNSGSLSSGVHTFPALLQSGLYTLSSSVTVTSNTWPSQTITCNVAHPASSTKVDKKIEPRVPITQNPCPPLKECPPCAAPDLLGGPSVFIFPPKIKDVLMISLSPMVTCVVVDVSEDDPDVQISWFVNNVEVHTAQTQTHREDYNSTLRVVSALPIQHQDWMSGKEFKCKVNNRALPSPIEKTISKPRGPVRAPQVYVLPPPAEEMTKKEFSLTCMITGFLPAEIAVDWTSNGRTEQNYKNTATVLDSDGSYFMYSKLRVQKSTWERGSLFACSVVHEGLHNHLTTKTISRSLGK
Sequence of SG7 (chain, as listed by the source, chain 2 of 2): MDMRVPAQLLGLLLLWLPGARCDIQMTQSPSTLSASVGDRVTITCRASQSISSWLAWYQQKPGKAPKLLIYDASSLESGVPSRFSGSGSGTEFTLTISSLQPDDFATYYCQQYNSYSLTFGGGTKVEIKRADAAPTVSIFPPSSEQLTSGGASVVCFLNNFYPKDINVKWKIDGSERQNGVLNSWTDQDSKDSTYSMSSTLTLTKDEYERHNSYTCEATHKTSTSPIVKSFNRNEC

| percent of parent [% WT] | Binder |
| --- | --- |
| 9 | B1 |
| 1 | B2 |
| 63 | B3 |
| 13 | B4 |
